# B1: Glyma14g05990: soybean enzyme having predominately arogenate dehydrogenase activity (protein)
# chain: MSTWSLKIGVVGFGSFGQFLAKTMIKQGHTLRATSRTDYSLLCLPMGIQFFRDVAAFLEADNDVILVCTSILSLSEVLSSMPLTCLKRSTLFVDVLSVKEHPRNLLIKVLPEESDILCTHPMFGPDSGKDGWQDLTFVYDKVRIRDEAICSSFLHIFASEGCRMLQMSCEEHDKIAAKSQFITHTIGRTLAEMDIKSTPIDTKGFHSLVQLKDTTIRDSFDLYSGLFLHNRFAVQELENLEHALHKVKEMLVQRKSEELGLEKTEC
# modifications: Glycine max
# B2: Glyma11g35760: soybean PDH enzyme, paralog of Glyma18g02650, tested as crude E. coli extract (protein)
# chain: MTTMSTSSSSQSLKIGIVGFGNFGQFLAKTMIKQGHTLTATSRSDYSQLCLQMGIHFFRDVSAFLAADIDVIVLCTSILSLSEVVGSMPLTSLKRPTLFVDVLSVKEHPRELLLRELPEDSDILCTHPMFGPQTANNGWTDHTFMYDKVRIRDEATCSSFIQIFATEGCKMVQMSCEEHDRAAAKSQFITHTIGRTLGEMDIQSTPIDTKGFETLVKLKETMMRNSFDLYSGLFVYNRFARQELENLEHAFYKVKETLMIQRSNGEQGHKRTES
# modifications: Glycine max
# notes: soybean PDH enzyme, paralog of Glyma18g02650, tested as crude E. coli extract
# B3: AtADH2: Arabidopsis thaliana arogenate dehydrogenase 2, recombinant enzyme, inhibited by L-Tyr (protein, UniProt Q9LMR3 37-358, looked up)
# Arogenate dehydrogenase 2, …: IDAAQIFDYETQLKSEYRKSSALKIAVLGFGNFGQFLSKTLIRHGHDLITHSRSDYSDAANSIGARFFDNPHDLCEQHPDVVLLCTSILSTESVLRSFPFQRLRRSTLFVDVLSVKEFPKALFIKYLPKEFDILCTHPMFGPESGKHSWSGLPFVYDKVRIGDAASRQERCEKFLRIFENEGCKMVEMSCEKHDYYAAGSQFVTHTMGRVLEKYGVESSPINTKGYETLLDLVENTSSDSFELFYGLFMYNPNALEQLERLDMAFESVKKELFGRLHQQYRKQMFGGEVQSPKKTEQKLLNDGGVVPMNDISSSSSSSSSSS
# Columns and labels:
# Format in all cases: biochemical
# [1] = test system: CM activity in the cytosol; experiment: CM activity in cytosolic fraction of soybean leaf with and without effector; details: 1 mM effector
# Description: (§1) CM activity from crude plant extracts and from cytosolic and plastidic fractions (FIG. 4I) was determined in the presence and absence of 1 mM L-Tyr or L-Trp (FIG. 4I) by detecting phenylpyruvate formation using the same HPLC method for HPLA detection (see above). Assays were set up as described above but were incubated for 60 min at 37° C. before addition of 1 N HCl. Phenylpyruvate was detected by UV absorbance at 270 nm and quantified by comparison to the authentic phenylpyruvate standard (Sigma-Aldrich).
# (§2) Ten grams of 4-week-old soybean leaves were harvested at the end of the night to deplete starch. The fresh tissues were homogenized using a Polytron (Brinkmann, Westhury, N.Y.) in 10 ml of the plastid isolation buffer (0.5 M sorbitol, 20 mM HEPES (pH 7.4), 10 mM KCl, 1 mM MgCl2, 1 mM EDTA, 5 mM DTT and 1% BSA) (Kong and Rawsthorne. Plant J, 6: 795-805 (1994)). The homogenate was filtered through two layers of micracloth. The residual homogenate left on the micracloth was homogenized again in 10 ml of the isolation buffer and passed through two layers of micracloth, which was repeated once more to yield ˜30 ml of homogenate. The combined homogenate was centrifuged at 2,500 g for 5 min. The pellet was washed twice with the isolation buffer, resuspended in 4 ml of lysis buffer (25 mM HEPES (pH 7.5), 50 mM KCl) and left on ice for 20 min to rapture the plastids. […]
# [2] = test system: CM activity in the plastid fraction; experiment: CM activity in plastidic fraction of soybean leaf with and without effector; details: 1 mM effector
# Description: as §1, §2
# [3] = Qualitative HPLC detection of PDH activity in E. coli cell lysates expressing candidate enzymes; details: 2 mM prephenate, saturating conditions
# Description: ADH and PDH reactions contained 25 mM HEPES (pH 7.5), 50 mM KCl, 10% ethylene glycol, 1 mM NADP (or NAD^+), 2 mM substrate (L-arogenate or prephenate, respectively) unless otherwise noted. Arogenate was prepared by enzymatic conversion from prephenate (Sigma-Aldrich), as previously reported. Reactions were started by addition of enzyme from various sources and incubated at 37′ C. for a given amount of time, as noted below,
# HPLC-based methods were used to directly detect the final products of ADH and PDH assays, Tyr and HPP, respectively from crude E. coli extracts (FIG. 3B and FIG. 3C) and crude plant extracts (FIG. 2A and FIG. 6). For HPLC detection of PDH activity, reactions were incubated for 45 min and terminated by addition of NaBH4, which converts the reaction product HPP (which produced multiple peaks; FIG. 6) into hydroxyphenyllactic acid (HPLA), followed by neutralization with 100 μl of 6 N HCl. The conversion and recovery rate was 80±1.5% s.d. which was taken into account for the calculation of specific activity from crude plant extracts (FIG. 2C). HPLA was detected as a single peak (FIG. 2A) after being separated by HPLC (Agilent 1260, Santa Clara, Calif.) equipped with a ZORBA X SB-C18 column (Agitent) using a 6-min isocratic elution at 25% methanol in 0.1% phosphoric acid, followed by a 20-min linear gradient of 25-60% methanol at a flow rate of 1.0 ml/min. HPLA was detected using UV absorbance at 270 nm and quantified by a calibration curve generated from the authentic HPLA standard (Sigma-Aldrich). For HPLC-based detection of ADH activity (FIG. 3B), reactions were incubated for 45 min and terminated by addition of methanol to a final concentration of 66% (v/v). The product, Tyr, was derivatized with OPA and separated on a ZORBAX eclipse-XDB C18 column (Agilent) using a 30-min linear gradient of 20-45% methanol in 0.1% animonium acetate at a flow rate of 0.8 ml/min. Tyr was detected by UV absorption at 336 nm and quantified on the basis of a calibration curve generated by the authentic Tyr standard (Acros, Geel, Belgium).
# The crude enzyme extracts were first subjected to PDH and ADH assays using saturating conditions to screen for any detectable PDH and/or ADH activity (FIG. 3B and FIG. 3C). ADH activity was detected from all five candidates. In contrast, PDH activity was detected only in Glyma11a35760 and Glyma18g02650 as well as their closest homolog from Medicago (Mt3g071980) but not in Glyma5g07870, Glyma17g13150 and Glyma14g05990 (FIG. 3C).
# [4] = Inhibition analysis: L-Tyr sensitivity of PDH activity, crude E. coli extract expressing Glyma11g35760; details: for PDH activity: crude E. coli extract
# Description: For recombinant protein expression, the cloned pFT28a vectors were introduced into Rosetta-2 E. coli competent cells (Novagen) and cultured overnight at 37° C., 200 r.p.m. in 10 ml LB medium containing kanamycin (100 μg/ml) and chloramphenicol (100 μg/ml). Two milliliters of the overnight culture were transferred to 50 ml LB medium with the same antibiotics and further incubated at 37° C. and 200 r.p.m. until the OD600 reached 0.3. The temperature was then changed to 18° C. and, after 1 h, isopropyl β-D-I-thiogalactopyranoside (IPTG, […] final concentration) was added to induce recombinant protein expression. After overnight incubation at 18° C. under constant shaking at 200 r.p.m, cultures were harvested by centrifugation at 2,000 g for 30 min at 4° C. and the pellet was resuspended in an appropriate volume of lysis buffer (25 mM HEPES, pH 7, 50 mM KCl, 10% ethylene glycol, 1 mM phenylmethylsulfortyl fluoride (PMSF) and 1 mM DTT) calculated on the basis of the formula (OD600×ml volume of culture)/30. The resuspended pellet was sonicated three times for 15 s. The cell lysate was centrifuged at 16,000 g for 10 min at 4° C. and the supernatant was applied to a column containing 500 μl PerfectPro Ni-NTA resin (5 PRIME, Hamburg, Germany). The column was washed with ten times the bed volume of wash buffer 1 (50 mM sodium phosphate buffer, pH 8.0, 300 mM NaCl, 20 mM imidazole) followed by ten times the bed volume of wash buffer II (50 mM sodium phosphate buffer, pH 8.0, 300 mM NaCl, 40 mM imidazole) and then wash buffer III (50 mM sodium phosphate buffer, pH 8.0, 300 mM NaCl, 60 mM imidazole). The recombinant enzymes containing an N-terminal His6 tag were eluted from the resin with 1 ml of elution buffer (50 mM sodium phosphate buffer, pH. 8.0, 300 mM NaCl, 500 mM imidazole) and desalted as described above. The purity of the purified recombinant enzymes was estimated by running on SDS-PAGE gel (FIG. 12) and analyzing with ImageJ (http://imagej.nih.gov/ij/). The recombinant enzyme of Glyma11g35760 was tested for Tyr sensitivity (FIG. 5A) using crude E. coli extract as its purification was not successful owing to its low expression (FIG. 3B and FIG. 3C) and insolubility.
# (§3) ADH and PDH reactions using GmPDH1, Glyma11g35760, MtPDH1 and AtADH2 (FIG. 5A) contained 200 mM HEPES (pH 7.3), 50 mM KCl, 10% ethylene glycol, 1 mN4 NADP^+ and 1 mM substrate (L-arogenate or prephenate, respectively). Reactions were started by addition of enzyme and incubated at 37° C. for 15 min in the presence of increasing concentrations of effectors: L-Tyr FIG. 5A), L-Phe, L-Trp and HPP. Tyr was dissolved in basic conditions (0.025 N NaOH) to dissolve at high concentrations (up to 10 mM), though 200 mM HEPES maintained the final reaction pH at 7.6. Tyr sensitivity of purified recombinant GmPDH1 and MtPDH1 was also tested at prephenate concentrations ranging from […] to 59 μM, below the K values for GmPDH1 and MtPDH1, while keeping the L-Tyr concentration constant at 1 mM (FIG. 13). Enzyme activity was measured for the production of reduced cofactor (NADPH) at 340 nm using a spectrophotometer, except for crude soybean extracts, which were analyzed by HPLC after 45 min incubation and reduction to HPLA as described above.
# [5] = Inhibition analysis: L-Tyr sensitivity of ADH activity of recombinant AtADH2; details: for ADH activity: 1 mM L-arogenate, 1 mM NADP+, 37° C., 15 min
# Description: as §3
molecule,measurement,setting,value
"N[C@@H](Cc1c[nH]c2ccccc12)C(=O)O [L-Trp, tryptophan]",CM activity in the cytosol,[1],increased
same,induction of CM activity in the plastid fraction,[2],approximately threefold
"N[C@@H](Cc1ccc(O)cc1)C(=O)O [L-Tyr, Tyrosine]",CM activity in the cytosol,[1],only slightly decreased
same,CM activity in the plastid fraction,[2],completely inhibited
B1,PDH activity (qualitative detection),[3],not
B2,inhibition of PDH activity by L-Tyr,[4]; E. coli extract expressing the enzyme,not inhibited
same,PDH activity,[4]; L-Tyr 0 mM,1219 ± 76 pKat/mg
same,PDH activity,[4]; L-Tyr 0.01 mM,1211 ± 39 pKat/mg
same,PDH activity,[4]; L-Tyr 0.1 mM,1173 ± 16 pKat/mg
same,PDH activity,[4]; L-Tyr 1.0 mM,1250 ± 63 pKat/mg
same,PDH activity,[4]; L-Tyr 10 mM,1109 ± 79 pKat/mg
same,PDH activity (qualitative detection),[3],detected
B3,reduction of ADH activity,[5]; 100 μM L-Tyr,~75%
same,ADH activity,[5]; L-Tyr 0 mM,923 ± 34 uKat/mg
same,ADH activity,[5]; L-Tyr 0.01 mM,766 ± 35 uKat/mg
same,ADH activity,[5]; L-Tyr 0.1 mM,251 ± 45 uKat/mg
same,ADH activity in the presence of L-Tyr,[5]; ≧1 mM L-Tyr,abolished

# Reference: patent US20150150157A1, “PREPHENATE DEHYDROGENASES AND AROGENATE DEHYDROGENASES THAT ARE INSENSITIVE TO EFFECTOR FEEDBACK INHIBITION AND METHODS OF USING THE SAME” (Wisconsin Alumni Research Foundation, priority 2013, published 2015)
